Reference: PMC10901774 (2024)
Values belong to the binder of their own block, whether it stands above or below them. Where no end group is shown, it is not given here. [ ]: non-standard residue; d: D form.

B3: recombinant CHIP (C-terminus of Hsc70-interacting protein) TPR domain (domain or fragment)
chain: GASPSAQELKEQGNRLFVGRKYPEAAACYGRAITRNPLVAVYYTNRALCYLKMQQHEQALADCRRALELDGQSVKAHFFLGQCQLEMESYDEAIANLQRAYSLAKEQRLNFGDDIPSALRIAKKKRWNSIEERR
modifications: biotinylated in the TR-FRET assay

Columns and labels:
[1] = target: B3; test: FP
[2] = target: FAM-Hsp70 peptide (peptide model of the heat shock protein 70 C-terminus), L-form (UniProt P0DMV8, 5(6)-carboxyfluorescein (FAM)); test: FRET
FAM-Hsp70 peptide (peptide model of the heat shock protein 70 C-terminus), L-form, sequence (P0DMV8 whole entry, looked up, tested part not stated): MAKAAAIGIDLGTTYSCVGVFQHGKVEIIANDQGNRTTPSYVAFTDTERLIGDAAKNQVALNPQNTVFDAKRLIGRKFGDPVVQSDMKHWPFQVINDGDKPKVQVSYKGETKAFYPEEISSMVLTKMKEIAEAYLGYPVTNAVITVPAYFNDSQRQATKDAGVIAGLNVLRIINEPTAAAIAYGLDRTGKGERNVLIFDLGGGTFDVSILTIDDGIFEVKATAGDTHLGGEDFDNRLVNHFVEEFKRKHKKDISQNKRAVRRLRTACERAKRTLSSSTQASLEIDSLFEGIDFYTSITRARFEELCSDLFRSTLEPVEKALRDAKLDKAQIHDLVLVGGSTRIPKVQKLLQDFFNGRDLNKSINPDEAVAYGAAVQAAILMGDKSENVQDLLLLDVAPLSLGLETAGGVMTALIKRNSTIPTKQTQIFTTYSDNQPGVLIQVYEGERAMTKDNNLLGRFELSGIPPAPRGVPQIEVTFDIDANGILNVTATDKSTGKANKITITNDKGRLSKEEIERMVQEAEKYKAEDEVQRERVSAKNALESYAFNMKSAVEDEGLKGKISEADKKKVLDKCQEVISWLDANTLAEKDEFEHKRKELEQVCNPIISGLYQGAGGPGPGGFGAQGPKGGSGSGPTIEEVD

[3] = target: FAM-Hsp70 peptide (peptide model of the heat shock protein 70 C-terminus), D-form (UniProt P0DMV8, all residues D-amino acids; 5(6)-carboxyfluorescein (FAM)); test: FRET
FAM-Hsp70 peptide (peptide model of the heat shock protein 70 C-terminus), D-form, sequence (P0DMV8 whole entry, looked up, tested part not stated): as above

[4] = target: p53-derived model peptide, FAM-labelled (L-form) (UniProt P04637, 5(6)-carboxyfluorescein (FAM)); test: FRET
p53-derived model peptide, FAM-labelled (L-form), sequence (P04637 whole entry, looked up, tested part not stated): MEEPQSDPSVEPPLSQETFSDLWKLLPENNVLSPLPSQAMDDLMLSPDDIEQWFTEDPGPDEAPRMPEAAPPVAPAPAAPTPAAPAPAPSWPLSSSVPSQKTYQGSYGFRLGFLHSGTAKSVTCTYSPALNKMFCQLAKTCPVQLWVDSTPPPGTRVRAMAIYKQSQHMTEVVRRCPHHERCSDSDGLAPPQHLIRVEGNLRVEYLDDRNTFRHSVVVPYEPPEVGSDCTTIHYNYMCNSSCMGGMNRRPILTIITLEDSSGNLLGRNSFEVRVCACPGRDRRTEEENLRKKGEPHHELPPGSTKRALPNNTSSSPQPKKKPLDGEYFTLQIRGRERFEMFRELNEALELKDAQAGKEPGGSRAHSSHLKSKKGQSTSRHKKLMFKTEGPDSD

[5] = target: p53-derived model peptide, FAM-labelled (D-form) (UniProt P04637, all residues D-amino acids; 5(6)-carboxyfluorescein (FAM)); test: FRET
p53-derived model peptide, FAM-labelled (D-form), sequence (P04637 whole entry, looked up, tested part not stated): as above

- IC50 [1]: 1.23 µM
Binder: [dP][dW][dW][dE][dC][dL][dS][dQ][dA][dD][dD][dC][dD][dF][dR] (staple (positions not given here)) [D-H202]

- Kd [2]: 3.8 µM
B1: synthetic L-CHIP (TPR domain) (domain or fragment)
chain: SPSAQELKEQGNRLFVGRKYPEAAACYGRAITRNPLVAVYYTNRALCYLKMQQHEQALADCRRALELDGQSVKAHFFLGQCQLEMESYDEAIANLQRAYSLAKEQRLNFGDDIPSALRIAKKKRWNSIEERR
modifications: biotin at the N-terminus through a PEG12 linker

- Kd [3]: 3.5 µM
B2: synthetic D-CHIP (TPR domain) (domain or fragment)
chain: SPSAQELKEQGNRLFVGRKYPEAAACYGRAITRNPLVAVYYTNRALCYLKMQQHEQALADCRRALELDGQSVKAHFFLGQCQLEMESYDEAIANLQRAYSLAKEQRLNFGDDIPSALRIAKKKRWNSIEERR
modifications: all residues D-amino acids; biotin at the N-terminus through a PEG12 linker

Binder: B3
- Kd [2]: 4 µM

- Kd [4]: 0.01 µM
B4: recombinant MDM2 (mouse double minute 2 homolog) (domain or fragment)
chain: SQIPASEQETLVRPKPLLLKLLKSVGAQKDTYTMKEVLFYLGQYIMTKRLYDEKQQHIVYCSNDLLGDLFGVPSFSVKEHRKIYTMIYRNLVVVN
modifications: biotinylated in the TR-FRET assay

- Kd [5]: 0.013 µM
B5: synthetic D-MDM2 (domain or fragment)
chain: SQIPASEQETLVRPKPLLLKLLKSVGAQKDTYTMKEVLFYLGQYIMTKRLYDEKQQHIVYCSNDLLGDLFGVPSFSVKEHRKIYTMIYRNLVVVN
modifications: all residues D-amino acids; biotin at the N-terminus through a PEG12 linker
